These results are taken from paper PMC6919569.

Data set [1] addresses T1, NF-kB p65 (RelA), recombinant (Homo sapiens, UniProt Q04206 1-551). Put plainly: competition EMSA.
In data set [2] the target is T1, NF-kB p65 (RelA), recombinant. Put plainly: EMSA, supershift.

T1 sequence (Q04206 whole entry): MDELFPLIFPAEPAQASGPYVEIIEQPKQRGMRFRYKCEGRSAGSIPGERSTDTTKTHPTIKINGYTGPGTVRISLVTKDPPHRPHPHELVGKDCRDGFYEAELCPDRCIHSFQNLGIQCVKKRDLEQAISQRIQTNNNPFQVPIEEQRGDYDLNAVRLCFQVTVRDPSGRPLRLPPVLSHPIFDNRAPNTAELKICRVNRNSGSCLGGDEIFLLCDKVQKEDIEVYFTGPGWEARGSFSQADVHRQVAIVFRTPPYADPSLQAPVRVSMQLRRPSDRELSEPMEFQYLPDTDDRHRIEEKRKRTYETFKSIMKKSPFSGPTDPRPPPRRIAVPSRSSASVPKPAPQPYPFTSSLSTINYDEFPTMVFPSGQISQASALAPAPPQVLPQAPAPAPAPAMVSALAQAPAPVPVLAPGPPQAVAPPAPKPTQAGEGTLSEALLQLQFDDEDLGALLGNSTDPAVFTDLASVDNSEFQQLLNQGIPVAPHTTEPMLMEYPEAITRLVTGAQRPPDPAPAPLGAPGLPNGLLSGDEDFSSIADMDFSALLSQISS

B1: Mutant 2 (… to CCCTTAAGGG) (dsDNA)
DNA 1: CTGTGCTCCCTTAAGGGTTAGCTCC
DNA 2: GGAGCTAACCCTTAAGGGAGCACAG
With B1, the binding result in data set [1] is listed as “no binding”.

B2: Mutant 1 (NF-kB site deleted) (dsDNA)
DNA 1: CTGTGCTTTAGCTCC
DNA 2: GGAGCTAAAGCACAG
As to B2, the binding result in data set [1] is “no binding”.

B3: PLCB2 -1652/-1628 WT NF-kB probe (dsDNA)
DNA 1: CTGTGCTGGGAATTCCCTTAGCTCC
DNA 2: GGAGCTAAGGGAATTCCCAGCACAG
Regarding B3, in data set [2], the binding result is on record as “binds”.
